Measurements as given in patent publication US20260193348A1.

Molecular target: GPRC5D (G-protein coupled receptor family C group 5 member D), human, on multiple myeloma cell lines (human) (UniProt Q9NZD1)
Assay: cell-based or functional assay

Chain of GPRC5D (G-protein coupled receptor family C group 5 member D), human, on multiple myeloma cell lines (human) (Q9NZD1 whole entry): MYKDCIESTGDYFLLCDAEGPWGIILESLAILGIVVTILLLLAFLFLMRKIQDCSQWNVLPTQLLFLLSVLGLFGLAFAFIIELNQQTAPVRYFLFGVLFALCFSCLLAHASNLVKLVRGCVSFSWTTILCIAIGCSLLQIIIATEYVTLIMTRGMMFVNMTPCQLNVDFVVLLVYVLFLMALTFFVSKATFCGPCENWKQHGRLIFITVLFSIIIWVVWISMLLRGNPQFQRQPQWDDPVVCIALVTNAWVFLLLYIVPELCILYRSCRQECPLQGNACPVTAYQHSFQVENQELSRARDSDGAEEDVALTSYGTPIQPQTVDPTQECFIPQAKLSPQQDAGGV

B1: Bis-108-H3L4 (bispecific antibody, not shown: a dimerising Fc or GST)
heavy: EVQLVQSGAEVKKPGASVKVSCKASGYTFTSYVIHWVRQAPGQGLEWMGYFNPYNDGTKYNEEFKGRVTLTSDKSTSTAYMELRSLRSDDTAVYYCARGGVRRYFDVWGQGTTVTVSS
heavy (part 1 of 2): EVQLVQSGAEVKKPGASVKVSCKASGYTFTSYVIHWVRQAPGQGLEWMGYFNPYNDGTKYNEEFKGRVTLTSDKSTSTAYMELRSLRSDDTAVYYCARGGVRRYFDVWGQGTTVTVSS
heavy (part 2 of 2): GGGGSGGGGSEVQLVESGGGLVQPGGSLRLSCAASGFTFNTYAMNWVRQAPGKGLEWVARIRSKYNNYATYYAASVKGRFTISRDDSKNSLYLQMNSLKTEDTAVYYCARHGNFGNSYVSWFAYWGQGTLVTVSSGGGGSGGGGSGGGGSGGGGSQTVVTQEPSLTVSPGGTVTLTCRSSTGAVTTSNYANWVQQKPGQAPRGLIGGTNKRAPGTPARFSGSLLGGKAALTLSGVQPEDEAEYYCALWYSNLWVFGGGTKLTVLGGGGSGGGGS
light: DIQMTQSPSSLSASVGDRVTITCRASQDIGSNLNWLQQKPGKAIKRLIYATFGLDSGVPSRFSGSRSGTDFTLTISSLQPEDFATYYCQQYASFPYTFGGGTKVEIK
What does the source list for B1?
IC50 (nM), T-Cell Dependent Cytotoxicity, MM.1S: 0.0496 nM; Top (%), T-Cell Dependent Cytotoxicity, MM.1S: 72.4%

B2: Bis-108-H5L3 (bispecific antibody, not shown: a dimerising Fc or GST)
heavy: EVQLVQSGAEVKKPGASVKVSCKASGYTFTSYVIHWVKQAPGQGLEWIGYFNPYNDGTKYNEEFKGKATLTTDKSTSTAYMELRSLRSDDTAVYYCARGGVRRYFDVWGQGTTVTVSS
heavy (part 1 of 2): EVQLVQSGAEVKKPGASVKVSCKASGYTFTSYVIHWVKQAPGQGLEWIGYFNPYNDGTKYNEEFKGKATLTTDKSTSTAYMELRSLRSDDTAVYYCARGGVRRYFDVWGQGTTVTVSS
heavy (part 2 of 2): GGGGSGGGGSEVQLVESGGGLVQPGGSLRLSCAASGFTFNTYAMNWVRQAPGKGLEWVARIRSKYNNYATYYAASVKGRFTISRDDSKNSLYLQMNSLKTEDTAVYYCARHGNFGNSYVSWFAYWGQGTLVTVSSGGGGSGGGGSGGGGSGGGGSQTVVTQEPSLTVSPGGTVTLTCRSSTGAVTTSNYANWVQQKPGQAPRGLIGGTNKRAPGTPARFSGSLLGGKAALTLSGVQPEDEAEYYCALWYSNLWVFGGGTKLTVLGGGGSGGGGS
light: DIQMTQSPSSLSASVGDRVTITCRASQDIGSNLNWLQQKPGKAIKRLIYATFGLDSGVPSRFSGSGSGTDYTLTISSLQPEDFATYYCQQYASFPYTFGGGTKVEIK
Which IC50 (nM), T-Cell Dependent Cytotoxicity, MM.1S does the source give for B2 here?
Its IC50 (nM), T-Cell Dependent Cytotoxicity, MM.1S is 0.0897 nM.

And the Top (%), T-Cell Dependent Cytotoxicity, MM.1S?
The Top (%), T-Cell Dependent Cytotoxicity, MM.1S was 74.8%.

B3: Bis-108-H2L4 (bispecific antibody, not shown: a dimerising Fc or GST)
heavy: EVQLVQSGAEVKKPGASVKVSCKASGYTFTSYVIHWVRQAPGQGLEWIGYFNPYNDGTKYNEEFKGRATMTTDTSTSTAYMELRSLRSDDTAVYYCARGGVRRYFDVWGQGTTVTVSS
heavy (part 1 of 2): EVQLVQSGAEVKKPGASVKVSCKASGYTFTSYVIHWVRQAPGQGLEWIGYFNPYNDGTKYNEEFKGRATMTTDTSTSTAYMELRSLRSDDTAVYYCARGGVRRYFDVWGQGTTVTVSS
heavy (part 2 of 2): GGGGSGGGGSEVQLVESGGGLVQPGGSLRLSCAASGFTFNTYAMNWVRQAPGKGLEWVARIRSKYNNYATYYAASVKGRFTISRDDSKNSLYLQMNSLKTEDTAVYYCARHGNFGNSYVSWFAYWGQGTLVTVSSGGGGSGGGGSGGGGSGGGGSQTVVTQEPSLTVSPGGTVTLTCRSSTGAVTTSNYANWVQQKPGQAPRGLIGGTNKRAPGTPARFSGSLLGGKAALTLSGVQPEDEAEYYCALWYSNLWVFGGGTKLTVLGGGGSGGGGS
light: DIQMTQSPSSLSASVGDRVTITCRASQDIGSNLNWLQQKPGKAIKRLIYATFGLDSGVPSRFSGSRSGTDFTLTISSLQPEDFATYYCQQYASFPYTFGGGTKVEIK
B3 was tested. Which IC50 (nM), T-Cell Dependent Cytotoxicity, MM.1S did it give?
The IC50 (nM), T-Cell Dependent Cytotoxicity, MM.1S was 0.0934 nM.

And the Top (%), T-Cell Dependent Cytotoxicity, MM.1S?
Its Top (%), T-Cell Dependent Cytotoxicity, MM.1S is 74%.

B4: ATG-Bis-108 (bispecific antibody, not shown: a dimerising Fc or GST)
heavy: EVQLQQSGPELVKPGASVKMSCKASGYTFTSYVIHWVKQKTGQGLEWIGYFNPYNDGTKYNEEFKGKATLTSDKSSNTAYMELNSLTSDDSAVYFCARGGVRRYFDVWGAGTTVTVSS
heavy (part 1 of 2): EVQLQQSGPELVKPGASVKMSCKASGYTFTSYVIHWVKQKTGQGLEWIGYFNPYNDGTKYNEEFKGKATLTSDKSSNTAYMELNSLTSDDSAVYFCARGGVRRYFDVWGAGTTVTVSS
heavy (part 2 of 2): GGGGSGGGGSEVQLVESGGGLVQPGGSLRLSCAASGFTFNTYAMNWVRQAPGKGLEWVARIRSKYNNYATYYAASVKGRFTISRDDSKNSLYLQMNSLKTEDTAVYYCARHGNFGNSYVSWFAYWGQGTLVTVSSGGGGSGGGGSGGGGSGGGGSQTVVTQEPSLTVSPGGTVTLTCRSSTGAVTTSNYANWVQQKPGQAPRGLIGGTNKRAPGTPARFSGSLLGGKAALTLSGVQPEDEAEYYCALWYSNLWVFGGGTKLTVLGGGGSGGGGS
light: DIQMTQSPSSLSASLGERVSLTCRASQDIGSNLNWLQQEPDGTIKRLIYATFGLDSGVPKRFSGSRSGSDYSLTISSLESEDFVDYYCQQYASFPYTFGGGTKLEIK
Which IC50 (nM), T-Cell Dependent Cytotoxicity, MM.1S does the source give for B4 here?
The IC50 (nM), T-Cell Dependent Cytotoxicity, MM.1S was 0.0871 nM.

And the Top (%), T-Cell Dependent Cytotoxicity, MM.1S?
The Top (%), T-Cell Dependent Cytotoxicity, MM.1S was 77.2%.

B5: Bis-108-H1L4 (bispecific antibody, not shown: a dimerising Fc or GST)
heavy: EVQLVQSGAEVKKPGASVKVSCKASGYTFTSYVIHWVRQAPGQGLEWMGYFNPYNDGTKYNEEFKGRVTMTTDTSTSTAYMELRSLRSDDTAVYYCARGGVRRYFDVWGQGTTVTVSS
heavy (part 1 of 2): EVQLVQSGAEVKKPGASVKVSCKASGYTFTSYVIHWVRQAPGQGLEWMGYFNPYNDGTKYNEEFKGRVTMTTDTSTSTAYMELRSLRSDDTAVYYCARGGVRRYFDVWGQGTTVTVSS
heavy (part 2 of 2): GGGGSGGGGSEVQLVESGGGLVQPGGSLRLSCAASGFTFNTYAMNWVRQAPGKGLEWVARIRSKYNNYATYYAASVKGRFTISRDDSKNSLYLQMNSLKTEDTAVYYCARHGNFGNSYVSWFAYWGQGTLVTVSSGGGGSGGGGSGGGGSGGGGSQTVVTQEPSLTVSPGGTVTLTCRSSTGAVTTSNYANWVQQKPGQAPRGLIGGTNKRAPGTPARFSGSLLGGKAALTLSGVQPEDEAEYYCALWYSNLWVFGGGTKLTVLGGGGSGGGGS
light: DIQMTQSPSSLSASVGDRVTITCRASQDIGSNLNWLQQKPGKAIKRLIYATFGLDSGVPSRFSGSRSGTDFTLTISSLQPEDFATYYCQQYASFPYTFGGGTKVEIK
For B5, which IC50 (nM), T-Cell Dependent Cytotoxicity, MM.1S is on record?
The IC50 (nM), T-Cell Dependent Cytotoxicity, MM.1S was 0.0597 nM.

And the Top (%), T-Cell Dependent Cytotoxicity, MM.1S?
The Top (%), T-Cell Dependent Cytotoxicity, MM.1S was 75.5%.
